The results in this text go back to paper PMC4961739, “Regulation of post-Golgi LH3 trafficking is essential for collagen homeostasis” (Nature Communications, 2016).

This experiment concerns the target T1, His6-cMyc4-tagged VPS33B (human, UniProt Q9H267 1-617).
T1 construct: VPS33B, human, UniProt Q9H267; construct pUPE.02.13-VPS33B; also called pUPE.02.13-VPS33B; recombinant tagged VPS33B; source: HEK293 cells stably expressing Epstein-Barr virus Nuclear Antigen I, co-transfected with VIPAR; in lysate, then co-purified with VIPAR (Streptactin Sepharose, Superdex 200); not shown: His6-cMyc4, N-terminal, kept
T1 sequence (looked up): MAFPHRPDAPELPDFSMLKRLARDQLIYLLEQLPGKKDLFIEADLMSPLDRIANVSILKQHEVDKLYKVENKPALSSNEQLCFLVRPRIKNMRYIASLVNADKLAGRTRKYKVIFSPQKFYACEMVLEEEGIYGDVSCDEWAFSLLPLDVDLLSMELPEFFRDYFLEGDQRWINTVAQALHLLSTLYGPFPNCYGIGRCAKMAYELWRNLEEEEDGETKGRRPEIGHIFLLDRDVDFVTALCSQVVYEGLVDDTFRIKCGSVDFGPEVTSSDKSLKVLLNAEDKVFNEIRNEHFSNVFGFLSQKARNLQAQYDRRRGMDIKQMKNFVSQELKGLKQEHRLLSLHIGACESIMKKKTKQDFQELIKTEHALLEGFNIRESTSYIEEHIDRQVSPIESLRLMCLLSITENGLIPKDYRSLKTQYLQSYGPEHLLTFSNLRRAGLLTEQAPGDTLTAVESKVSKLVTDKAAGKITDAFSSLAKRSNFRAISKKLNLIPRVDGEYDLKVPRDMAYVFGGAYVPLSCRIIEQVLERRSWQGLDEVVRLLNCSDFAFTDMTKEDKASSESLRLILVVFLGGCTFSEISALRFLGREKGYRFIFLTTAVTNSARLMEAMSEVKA
As to the kind of experiment: affinity purification with mass spectrometry; His6-StrepII3-VIPAR and His6-cMyc4-VPS33B coexpressed in HEK293 cells; soluble lysate (0.3% NP-40, NaCl to 300 mM) on Streptactin Sepharose, eluted with 2.5 mM desthiobiotin, Superdex 200; purified sample analysed by LC-MS/MS. The settings on record: partners not purified.

B1: His6-StrepII3-tagged VIPAR (natural protein, human, UniProt Q9H9C1 1-493, looked up)
chain: MNRTKGDEEEYWNSSKFKAFTFDDEDDELSQLKESKRAVNSLRDFVDDDDDDDLERVSWSGEPVGSISWSIRETAGNSGSTHEGREQLKSRNSFSSYAQLPKPTSTYSLSSFFRGRTRPGSFQSLSDALSDTPAKSYAPELGRPKGEYRDYSNDWSPSDTVRRLRKGKVCSLERFRSLQDKLQLLEEAVSMHDGNVITAVLIFLKRTLSKEILFRELEVRQVALRHLIHFLKEIGDQKLLLDLFRFLDRTEELALSHYREHLNIQDPDKRKEFLKTCVGLPFSAEDSAHIQDHYTLLERQIIIEANDRHLESAGQTEIFRKHPRKASILNMPLVTTLFYSCFYHYTEAEGTFSSPVNLKKTFKIPDKQYVLTALAARAKLRAWNDVDALFTTKNWLGYTKKRAPIGFHRVVEILHKNNAPVQILQEYVNLVEDVDTKLNLATKFKCHDVVIDTYRDLKDRQQLLAYRSKVDKGSAEEEKIDALLSSSQIRWKN
notes: VIPAR (VIPAS39), human, UniProt Q9H9C1; construct pUPE.02.09-VIPAR; also called pUPE.02.09-VIPAR; recombinant tagged VIPAR; source: HEK293 cells stably expressing Epstein-Barr virus Nuclear Antigen I, co-transfected with VPS33B; in lysate, then purified (Streptactin Sepharose, Superdex 200); not shown: His6-StrepII3, N-terminal, kept
As for B1, the binding result was “binds”.
